A protein production outcome set (Wang et al. 2014)

Assay: label from the status in PepcDB records

Sequence | protein production
MAARNAFYAQSGGVTAVINASACGVLETARQYPDRIGTVYAGRNGIVGALTEDLIDTGQESAEAIAALRHTPSGAFGSCRYKLKGLEENRAQYERLIEVFRAHDIGYFFYNGGGDSADTCLKVSQLSEKLGYPLQAVHIPKTVDNDLPITDCCPGFGSVAKYIAVSVREASFDVRSMAATSTCIFVLEVMGRHAGWIAAAGGLASDERHELALVILFPEQVFDPERFLRAVDEKVRSHGYCSVVVSEGIRGADGRFVAESGSRDVFGHARLGGVAPVIADLIKERLGYKYHWAVADYLQRAARHIASRTDVEQAYAVGKAGVEMALKGLSAVMPAIVRTSDSPYRWEITAASLAEVANVEKKMPLEFISADGFGITEACRRYLRPLIEGEDYPPYAGGLPDYVTLCNVAVPKKLAASFSV | failed
MTLTSSQKPFRLLVGDREVQESDLAALLQKHQLLPELVKRMRFAQVIEGIEVQPDVLEQECQAWCKQNGIAPQQLPQLLAQQQISLEQWMSSVENRLRLRLFQEREFSHRAENRFLKRKSQLDLVTYSLLRHSDGHLIQELYQQLLHGEATFEDLATQFSQGHEAKTAGKLGPVPLSQPHPALAEVLRTAQPGQILPPRNLESYWLIIRLDQLQPVAFNETIRRQMLQELFDEWLGAEVQQTLNTL | failed
MRYEKMNQEILAAIGGEENIQSVVHCATRLRFVLKDESKADDKKAEAIDGILQVVKKGGQYQLVIGNNVEDVYDDLINMIHIETSDSNKPKKKQNLFDAIIGAITGSIAPAIPLLAGAGMGKVLLLILTICHVLSDKSQTYQLLNLIFDTGYYFMPAYVGFSAAKIFNTDRMLGAFIGLMTVHPSWVQIVTTNKPFHFLGLPVPLVQYSSTLITAILSVWIMSYIYKFVRKITPGMVKVFMEPMLTMLITGPLVFLIIGPISNWISEGIGFIAMWLFRNAGVIAIPILAALYPWLVSIGIHKALSPISIQLVATQGFDPIIRVVALCSNMSQAAASLAVGLKTKNKKLKSLALSSSVTAYLGGITEPALFGVNLRLKKPMYGAMIGGAIAGIVASFMKLKAFIYVTPAFLSLPMWISKTENFVVQAIIVIIVASVATFIATWIIGFDDPIDEDQVKNAKKEEKKNFDKDHKKHELHAPVKGQLEDISKVADPTFASGVMGKGIAIVPSEGKIFAPEDGVVTAIFDTHHAIGLHLSNDADVLIHVGIDTVEMKGKGFKQLVQKGDKVTAGQELLDFNIDEIKKNGYDPTVVMIVTNSKDFLEVLTVLKDKDATKEVTNQDNVIILA | failed
MSLSEGTFEVGKNTFLLNGEPFVVKAAEIHYPRIPKEYWEHRIKMCKALGMNTICLYVFWNFHEPEEGRYDFAGQKDIAAFCRLAQENGMYVIVRPGPYVCAEWEMGGLPWWLLKKKDIKLREQDPYYMERVKLFLNEVGKQLADLQISKGGNIIMVQVENEYGAFGIDKPYISEIRDMVKQAGFTGVPLFQCDWNSNFENNALDDLLWTINFGTGANIDEQFKRLKELRPDTPLMCSEFWSGWFDHWGAKHETRSAEELVKGMKEMLDRNISFSLYMTHGGTSFGHWGGANFPNFSPTCTSYDYDAPINESGKVTPKYLEVRNLLGNYLPEGETLPEIPDSIPTIAIPTIKMTEMAVLFDNLPHPKESEDIRTMEAFDQGWGSILYRTSLSASDKEQTLLITEAHDWAQVFLNGKKLATLSRLKGEGVVKLPPLKEGDRLDILVEAMGRMNFGKGIYDWKGITEKVELQSDKGVELVKDWQVYTIPVDYSFARDKQYKQQENAENQPAYYRSTFNLNELGDTFLNMMNWSKGMVWVNGHAIGRYWEIGPQQTLYVPGCWLKKGENEIIILDMAGPSKAETEGLRQPILDVQRGNGAYAHRKMGEGHHHHHH | not failed
MGEYCEKDFRSLQRCAEMNNIRIFKFLVILYSLLLIASSFVYYYREDIYIRPESYFYLLTLAVGVTFAQIIFFGRNSRSEVKFLIFVEVLLVALSFTLTQQALYKTVLGRDPWFHWILVEEIVKRGSIPPYEQIPIPYVRMPNFHLVIASGIVLTNLSYKWAQVLFAGFPTLILLMLVAFLYSKKLFDDQVGLVSILLVAISDNVLDMVGKNIVPNTLGVALAFLIFYLIYFREYHNLMIKFLSVLVAIALAFMHTVSLTFLIWQIFVISILSLILKDKSAKFYLAHFAFLIVSALFVWGIYSGFYLKSLVIIFKQLFIYGFDIERYEAKLPTTFLDAVIARSGMVLYFAIAGIITFYLLVKTLKRRAFGIKLSTLSSILATISILAGAVSFLTPALSGIAHRFWYYGEVLSSAFVGSVLANLYERKKVIIVFNLIFICALSMLMFKANVANDDNPLVPYYSQRTGWHDSEIEAGKFVISKQGNIPIASDWDYSWNLRYLKTSLMASGALKDINRVTPKTFEEVKNCNCLFVFRKDLLENRLFYLGGRWTQTPHLPLSTLNLVIKELSENEGIIYNNNNILIMHLV | failed
MINLAVLGLYLLIGFILKRTGKCPENSAQVLNLYVIYAALPGVIFSKVPALEFSTDLLIPVVIPWVLLAFSAVFIWLLGRAFKWPREVVGALLICVPLGNTSFFGFPMIEAFYGSDAIVYGLLYDQFGSFFGLAIYSTIVIALYREQDNKPTVASVTRQIVTFPPFIALIIALLTKSLVYPEVFQRLIDSLAVTLVPVIMIAVGFQLKFRLPKGSKTPLTIGLLTKLVLMPLITVGLLYGFGFDSTLVQVTIFESAMPPMITAGAVAIMAGLAPRLSAAMVGYGILFAFVSLPIVYQLLQLLSAH | failed
MDLEEQKKAVIEKLIREGYIKSKRVIDALLKVPREEFLPEHLKEYAYVDTPLEIGYGQTISAIHMVGMMCELLDLKPGMKVLEIGTGCGYHAAVTAEIVGEDGLVVSIERIPELAEKAERTLRKLGYDNVIVIVGDGTLGYEPLAPYDRIYTTAAGPKIPEPLIRQLKDGGKLLMPVGRYLQRLVLAEKRGDEIIIKDCGPVAFVPLVGKEGFQG | not failed
AYGLTFEAPKGILVEEDTEETFLLNNSRFYITIQSLDSDGMTKSDLKSVLKDYANDDGVKDQSAVQEFELPQFFGTYLKGSCETDHCLYACLMTKAAGSGFYISIIYSKENENIAEKILKSFTMEE | not failed
MAVECIKDKVTRYPERASYSDEDLVAMLDRNFTCTVSFIDGGIPYAIPMMLASEGKTIYLHGSMKSRIYGILKTGQLIAISLLEINGIVLAKEIKNNSINYVSALIFGRPYEIDDTEKKIEVFRLLTEKLVKGRRDNSIKPSYEDLNGVFVFAVKPETFSMKARTGPPHDTSTDDIWSGVLPIQHTISEAGENAPEYVKSLYGKRIFI | not failed
MTETNHDQAEYWGKSASGMKWLTFEEQIAASFAPVVDLLLERAALKPGQRVLDIGCGLGDVTLAAAQAVGPGGHVLGVDISAPFLERAGLRASGMGNVGFALADAQSEPFAPAERDAVLSRFGMMFFSDTVAAFANIARALKPGGRMTFAAWGPLAGNPWFYLPHRAATDRLGQMPKVDRNAPGPLAFHDIDRVTGLMAEAGLADIEAQAVDLNLTPPGGLEGAAALCTRLGPAARVLAHFNGSEADEAAIRDAVSAALEPYVEGGEVLMPATINLFQARRAGTA | failed
MVTREEFVARFGGVFEHSPFIAERAYDAGGAGLELTAKAVHGALCAQFRVASEAERLGVLRAHPDLAGKLAIAGELTADSRNEQAGAGLDRLSPQEHARFTQLNSAYTEKFGFPFIIAVKGLNRHDILSAFDTRIDNNAAQEFATATGQVEKIAWLRLASMLPEG | not failed
MSDIELLETLAGTDQPRVMATIIHVEGSSYRKEGAMMLFQEDGTQVGLLSGGCLETDLTIKAQKVWQEQLPRTVVYDLSSEDDLSWGQGSGCNGTISVLLEPVDLKLRQHLKRVYDYLCAGKSVFHVKKLSTSGAVLEYAFILDESVYFGEWHSGHPVEWIRKIDENEEPLMFTHIYSPKERLIIFGAGPDVPPLVTFASNVGFYTVVTDWRPNQCEKHFFPDADEIIVDFPADFLRKFLIRPDDFVLIMTHHFQKDQEILHFLLEKELRYIGILGSKERTRRLLQNRKPPDHLYSPVGLSIDAQGPEEIAISIVAQLIQLIRSRKQASSPFSYLFQPESCKH | not failed
